Assay results from US20240383993A1.
Changes are numbered by the printed parent chain.

Key:
[1] = target: human 4-1BB expressed on cells (human) (UniProt Q07011); experiment: flow cytometry on CHO-K1/hu4-1BB cells, anti-human Fc-Alexa Fluor 633
[2] = target: His-tagged cynomolgus 4-1BB protein (cynomolgus) (UniProt A9YYE7); experiment: ELISA, coated His-tagged 4-1BB, anti-human IgG-HRP
Sequence of His-tagged cynomolgus 4-1BB protein (cynomolgus) (A9YYE7 entry or part of it): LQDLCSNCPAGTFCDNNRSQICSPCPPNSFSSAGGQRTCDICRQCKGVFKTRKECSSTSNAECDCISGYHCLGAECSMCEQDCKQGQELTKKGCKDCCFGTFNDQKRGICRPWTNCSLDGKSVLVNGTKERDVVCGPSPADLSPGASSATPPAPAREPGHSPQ

Sequence of human 4-1BB expressed on cells (human) (Q07011 24-255): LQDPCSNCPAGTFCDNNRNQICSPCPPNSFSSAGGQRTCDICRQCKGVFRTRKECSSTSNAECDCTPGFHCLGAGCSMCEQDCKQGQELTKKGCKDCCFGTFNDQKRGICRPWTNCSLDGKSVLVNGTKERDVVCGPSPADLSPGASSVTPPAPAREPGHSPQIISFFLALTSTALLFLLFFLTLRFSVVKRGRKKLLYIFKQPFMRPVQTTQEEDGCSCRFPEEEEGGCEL

B1: VV02-1SP (1)-73 huNb_1_1 (Fc fusion, not shown: a dimerising Fc or GST)
VHH: EVQLLESGGGLVQPGGSLRLSCAASGFTFSSSAMSWARQAPGKGLEWVSSIYSSGKTYYVESVKGRFTISRDNSKNTLYLQMNSLRAEDTAVYYCAKWKTLRVGVWDESDYWGQGTLVTVSS
- Max (MFI) [1]: 233 MFI

B2: VV02-1LP-288 (Fc fusion, not shown: a dimerising Fc or GST; small tags and cut ends)
VHH: EVQVVESGGGLVQPGGSLRLSCAASGSSLDYSAIGWFRQAPGKEREGVLCISSSGDVTIYADSVKGRFTISRDNAKNTVYLQMNSLKPEDTAVYYCVAPRICSTYSSDDYWGQGTQVTVSS
- EC50 [2]: > 30 nM

B3: VV02-1LP-417 (Fc fusion, not shown: a dimerising Fc or GST; small tags and cut ends)
VHH: B2 VHH with E1Q, V2L, V4L, S27F, S28A
- EC50 [2]: > 30 nM
